In patent publication US9889183B2, “PKC activators and anticoagulant in regimen for treating stroke” (BLANCHETTE ROCKEFELLER NEUROSCIENCES INSTITUTE, priority 2010, dated 2018):

Test system: ischemic stroke (middle cerebral artery occlusion) in rats
Experiment: Focal ischemia (MCAO) model of stroke
Type: in vivo, rat
Details: rTPA 6 hours after the stroke, without subsequent bryostatin; rats
Experimental: A transient animal model of focal ischemia was used for these experiments. The middle cerebral artery (MCA) was surgically dissected and occluded in anesthetized rats by ligature, followed by reperfusion after a defined period (about 2 hours). Animal models transient ischemia via occlusion of the MCA (MCAO) are well-known and described in, e.g., Sicard and Fisher, Exp. & Transl. Stroke Med. (2009), vol. 1, pp. 1-7.

B1: rTPA: recombinant tissue plasminogen activator, thrombolytic serine protease (protein, UniProt P00750 36-562, looked up)
Tissue-type plasminogen …: SYQVICRDEKTQMIYQQHQSWLRPVLRSNRVEYCWCNSGRAQCHSVPVKSCSEPRCFNGGTCQQALYFSDFVCQCPEGFAGKCCEIDTRATCYEDQGISYRGTWSTAESGAECTNWNSSALAQKPYSGRRPDAIRLGLGNHNYCRNPDRDSKPWCYVFKAGKYSSEFCSTPACSEGNSDCYFGNGSAYRGTHSLTESGASCLPWNSMILIGKVYTAQNPSAQALGLGKHNYCRNPDGDAKPWCHVLKNRRLTWEYCDVPSCSTCGLRQYSQPQFRIKGGLFADIASHPWQAAIFAKHRRSPGERFLCGGILISSCWILSAAHCFQERFPPHHLTVILGRTYRVVPGEEEQKFEVEKYIVHKEFDDDTYDNDIALLQLKSDSSRCAQESSVVRTVCLPPADLQLPDWTECELSGYGKHEALSPFYSERLKEAHVRLYPSSRCTSQHLLNRTVTDNMLCAGDTRSGGPQANLHDACQGDSGGPLVCLNDGRMTLVGIISWGLGCGQKDVPGVYTKVTNYLDWIRDNMRP
mortality: 44%
